The supplement of paper PMC10126150
± gives the standard deviation of the averaged measurements.

system: ATP; assay: switch fluorescence ratio, 500 uM ATP over buffer (Cy3 cluster intensity, sum of 5 cycles each) (fold (ratio)); higher = stronger signal-on switching upon ATP binding; sequences stand for … in TCGTCGGCAGCGTCAGATGTGTATAAGAGACAGTTTTTTTTTTTTTTTTTTTTTTTTT…TC; conditions: aptamer strand: ATP DNA aptamer (quencher-CACCTGGGGGAGTATTGCGGAGGAAGG + anchor), 100 nM annealed; ATP concentration: 500 uM
How it was run: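 Switching-strand clusters labelled with Cy3 on a modified Illumina MiSeq flow-cell were annealed to 100 nM quencher-labelled ATP aptamer, imaged in selection buffer, and re-imaged after 15 min with 500 uM ATP at 22 °C. This was done over five cycles with NaOH stripping and re-annealing in between. The fluorescence ratio is summed target-cycle over summed buffer-cycle Cy3 intensity per cluster, averaged per switch-domain sequence, excluding clusters outside 100-1000 RFU.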
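Also: ATP exposure 15 min at 22 °C before imaging.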

| Sequence | switch fluorescence ratio |
| --- | --- |
| TTTGTGGGTC | 0.995 ± 0.043 |
| TTTGTGGTTG | 0.992 ± 0.032 |
| TTTGTGTCCG | 0.946 ± 0.088 |
| TTTGTGTGGT | 0.978 ± 0.017 |
| TTTGTGTGTA | 0.9846 ± 0.0097 |
| TTTGTGTTCT | 0.9786 ± 0.0048 |
| TTTGTGTTTA | 0.9791 ± 0.0042 |
| TTTGTGTTTT | 1.03 ± 0.044 |
| TTTGTTAAAA | 1.04 ± 0.061 |
| TTTGTTACCG | 0.995 ± 0.012 |
| TTTGTTAGAA | 1.02 ± 0.012 |
| TTTGTTCCTT | 1.01 ± 0.04 |
| TTTGTTCTGG | 1.49 ± 0.73 |
| TTTGTTGCAG | 0.994 ± 0.036 |
| TTTGTTGCCT | 1.014 ± 0.0088 |
| TTTGTTGTGC | 1.01 ± 0.016 |
| TTTGTTTATA | 0.9992 ± 0.0034 |
| TTTGTTTGAT | 0.999 ± 0.034 |
| TTTGTTTTGT | 1.01 ± 0.051 |
| TTTGTTTTTC | 1.02 ± 0.013 |
| TTTTAAAAAG | 1 ± 0.012 |
| TTTTAAAACG | 1.04 ± 0.084 |
| TTTTAAACAC | 1.07 ± 0.11 |
| TTTTAAAGCT | 1.09 ± 0.039 |
| TTTTAACCCC | 1.26 ± 0.19 |
| TTTTAACGTG | 0.979 ± 0.021 |

| Sequence | switch fluorescence ratio |
| --- | --- |
| TTTTAACTTT | 1.03 ± 0.052 |
| TTTTAAGGAG | 1 ± 0.047 |
| TTTTAAGTTT | 0.978 ± 0.027 |
| TTTTAATCTC | 0.979 ± 0.024 |
| TTTTAATGTG | 1 ± 0.016 |
| TTTTACAAAA | 0.981 ± 0.02 |
| TTTTACCACC | 1.22 ± 0.049 |
| TTTTACGCAC | 1.81 ± 0.024 |
| TTTTACGGAT | 1.01 ± 0.012 |
| TTTTACGGGA | 1.26 ± 0.41 |
| TTTTACGGGC | 1.018 ± 0.0039 |
| TTTTACGGTG | 0.978 ± 0.03 |
| TTTTACTCCG | 3.1 ± 1.9 |
| TTTTACTGTT | 1.12 ± 0.096 |
| TTTTACTT | 0.998 ± 0.042 |
| TTTTAGAGT | 0.988 ± 0.024 |
| TTTTAGATGA | 0.966 ± 0.027 |
| TTTTAGCAAC | 1.2325 ± 0.0007 |
| TTTTAGCATT | 0.992 ± 0.062 |
| TTTTAGCGGT | 0.974 ± 0.02 |
| TTTTAGCTCT | 0.963 ± 0.015 |
| TTTTAGGCAC | 1.03 ± 0.018 |
| TTTTAGGCCC | 1.09 ± 0.073 |
| TTTTAGGCTG | 0.961 ± 0.027 |
| TTTTAGGCTT | 1.01 ± 0.026 |
| TTTTAGGGAA | 1.03 ± 0.035 |

| Sequence | switch fluorescence ratio |
| --- | --- |
| TTTTAGGTCC | 0.977 ± 0.023 |
| TTTTAGTACC | 1.018 ± 0.0081 |
| TTTTAGTTTG | 1.01 ± 0.035 |
| TTTTATAAAT | 1.02 ± 0.0071 |
| TTTTATAATA | 1.05 ± 0.034 |
| TTTTATACGT | 1.01 ± 0.016 |
| TTTTATAGAA | 1.0092 ± 0.00051 |
| TTTTATAGAT | 0.977 ± 0.015 |
| TTTTATAGCA | 1.02 ± 0.059 |
| TTTTATAGGG | 0.948 ± 0.027 |
| TTTTATCAA | 1.07 ± 0.12 |
| TTTTATCACT | 1.03 ± 0.034 |
| TTTTATCCGT | 1.06 ± 0.066 |
| TTTTATCGGG | 0.971 ± 0.016 |
| TTTTATCTTG | 1.03 ± 0.017 |
| TTTTATGACA | 1.02 ± 0.033 |
| TTTTATGACC | 1.008 ± 0.0066 |
| TTTTATGCAA | 1.28 ± 0.3 |
| TTTTATGCCC | 0.9772 ± 0.0032 |
| TTTTATGCTT | 0.97025 ± 0.00037 |
| TTTTATGGAC | 1.03 ± 0.03 |
| TTTTATGGAT | 1.01 ± 0.013 |
| TTTTATGGCG | 1.04 ± 0.0024 |
| TTTTATGGGT | 0.992 ± 0.018 |
| TTTTATGTGT | 0.992 ± 0.035 |
| TTTTATGTTC | 1.01 ± 0.018 |

| Sequence | switch fluorescence ratio |
| --- | --- |
| TTTTATTAAA | 1 ± 0.031 |
| TTTTATTATG | 1 ± 0.022 |
| TTTTATTCAG | 1 ± 0.03 |
| TTTTATTTGC | 1.01 ± 0.024 |
| TTTTATTTTC | 0.993 ± 0.027 |
| TTTTCAAACC | 0.9953 ± 0.0034 |
| TTTTCAAATC | 1.016 ± 0.0075 |
| TTTTCAACCA | 1.06 ± 0.043 |
| TTTTCAAGAG | 1.019 ± 0.01 |
| TTTTCAAGGA | 0.993 ± 0.07 |
| TTTTCAAGTG | 1 ± 0.029 |
| TTTTCAATCG | 1.01 ± 0.045 |
| TTTTCAATTT | 0.9758 ± 0.0064 |
| TTTTCACAAT | 1.17 ± 0.21 |
| TTTTCACGTT | 1.07 ± 0.095 |
| TTTTCACTTC | 1.03 ± 0.069 |
| TTTTCAGTGG | 1.02 ± 0.021 |
| TTTTCAGTGT | 0.996 ± 0.029 |
| TTTTCATATC | 1.04 ± 0.025 |
| TTTTCATCAT | 1.01 ± 0.031 |
| TTTTCATTCT | 1.01 ± 0.013 |
| TTTTCCAGGG | 1.22 ± 0.18 |
| TTTTCCATTA | 1 ± 0.044 |
| TTTTCCCTGC | 1.24 ± 0.11 |
| TTTTCCGTTT | 1.02 ± 0.032 |
| TTTTCCT | 1.04 ± 0.02 |

| Sequence | switch fluorescence ratio |
| --- | --- |
| TTTTCGAAGC | 2.08 ± 1.5 |
| TTTTCGAAGG | 1.005 ± 0.0028 |
| TTTTCGAGAG | 1 ± 0.026 |
| TTTTCGATAG | 1 ± 0.013 |
| TTTTCGGATT | 0.9845 ± 0.0054 |
| TTTTCGGCGT | 1.01 ± 0.01 |
| TTTTCGGCTG | 0.943 ± 0.11 |
| TTTTCGGTCA | 0.976 ± 0.026 |
| TTTTCGGTCT | 0.994 ± 0.017 |
| TTTTCGGTGA | 0.9713 ± 0.0057 |
| TTTTCGGTGC | 1.06 ± 0.1 |
| TTTTCGTATG | 1 ± 0.053 |
| TTTTCGTTTC | 1.01 ± 0.033 |
| TTTTCTACGG | 0.989 ± 0.02 |
| TTTTCTACTT | 0.999 ± 0.027 |
| TTTTCTATAT | 1.01 ± 0.065 |
| TTTTCTGTGT | 0.9398 ± 0.0077 |
| TTTTCTTAGG | 1.08 ± 0.14 |
| TTTTCTTCTT | 1.02 ± 0.068 |
| TTTTCTTTAT | 1.03 ± 0.036 |
| TTTTGAAAAA | 1 ± 0.061 |
| TTTTGAAAGA | 1.01 ± 0.062 |
| TTTTGAAAGT | 1.07 ± 0.14 |
| TTTTGAATAA | 0.9685 ± 0.0049 |
| TTTTGACCGC | 1.09 ± 0.061 |
| TTTTGACTGT | 0.966 ± 0.015 |

| Sequence | switch fluorescence ratio |
| --- | --- |
| TTTTGAGATC | 1.04 ± 0.045 |
| TTTTGAGGAG | 0.9807 ± 0.0038 |
| TTTTGAGGTT | 0.983 ± 0.034 |
| TTTTGAGTGA | 0.954 ± 0.041 |
| TTTTGAGTGT | 0.995 ± 0.051 |
| TTTTGATAGA | 1 ± 0.058 |
| TTTTGATATA | 0.9989 ± 0.0085 |
| TTTTGATCAA | 1.01 ± 0.02 |
| TTTTGATCGA | 1.03 ± 0.11 |
| TTTTGATCGG | 0.982 ± 0.037 |
| TTTTGATGAT | 1.02 ± 0.013 |
| TTTTGATGTA | 0.977 ± 0.019 |
| TTTTGATTTA | 1 ± 0.053 |
| TTTTGATTTT | 1.02 ± 0.041 |
| TTTTGCATTA | 1.33 ± 0.5 |
| TTTTGCCCGG | 1.01 ± 0.033 |
| TTTTGCGCGA | 1.09 ± 0.095 |
| TTTTGCGGTT | 0.998 ± 0.038 |
| TTTTGCTCAA | 0.996 ± 0.011 |
| TTTTGCTTCT | 1.03 ± 0.02 |
| TTTTGGAAAA | 1.02 ± 0.017 |
| TTTTGGAAGA | 0.983 ± 0.039 |
| TTTTGGAAGG | 1.02 ± 0.0083 |
